Assay results reported in the supplement of paper PMC9233669.
This sample holds only a part of the variants without activity.

Legend:
biotinyl-Leu-oxazolone = experiment: self-aminoacylation, catalytic enhancement (BLO) (fold over background); higher = more active; k-Seq, kA / k0A0; sequences stand for … in GGGAAUGGAUCCACAUCUACGAAUUC…UUCACUGCAGACUUGACGAAGCUG
In short: (§1)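 Working in 50 μL HEPES/NaCl/KCl/MgCl2/CaCl2 buffer with 5% acetonitrile at pH 6.9–7.0, mutagenized RNA pools (0.43 μM; 21-nt variable region) were reacted with 2–1250 μM of each biotinyl-aminoacyl-oxazolone for 90 minutes at room temperature. Streptavidin capture followed, with quantification by triplicate qPCR and Illumina sequencing. Catalytic enhancement is reported as median kA over the uncatalyzed rate, the low-activity peak of a bimodal Gaussian fit to the data.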

biotinyl-Met-oxazolone = experiment: self-aminoacylation, catalytic enhancement (BMO) (fold over background); higher = more active; k-Seq, kA / k0A0; sequences stand for … in GGGAAUGGAUCCACAUCUACGAAUUC…UUCACUGCAGACUUGACGAAGCUG
In short: as §1

biotinyl-Trp-oxazolone = experiment: self-aminoacylation, catalytic enhancement (BWO) (fold over background); higher = more active; k-Seq, kA / k0A0; sequences stand for … in GGGAAUGGAUCCACAUCUACGAAUUC…UUCACUGCAGACUUGACGAAGCUG
In short: as §1

biotinyl-Ile-oxazolone = experiment: self-aminoacylation, catalytic enhancement (BIO) (fold over background); higher = more active; k-Seq, kA / k0A0; sequences stand for … in GGGAAUGGAUCCACAUCUACGAAUUC…UUCACUGCAGACUUGACGAAGCUG
In short: as §1

biotinyl-Val-oxazolone = experiment: self-aminoacylation, catalytic enhancement (BVO) (fold over background); higher = more active; k-Seq, kA / k0A0; sequences stand for … in GGGAAUGGAUCCACAUCUACGAAUUC…UUCACUGCAGACUUGACGAAGCUG
In short: as §1

biotinyl-Phe-oxazolone = experiment: self-aminoacylation, catalytic enhancement (BFO) (fold over background); higher = more active; k-Seq, kA / k0A0; sequences stand for … in GGGAAUGGAUCCACAUCUACGAAUUC…UUCACUGCAGACUUGACGAAGCUG
In short: as §1

Sequence | self-aminoacylation (biotinyl-Leu-oxazolone) | self-aminoacylation (biotinyl-Met-oxazolone) | self-aminoacylation (biotinyl-Trp-oxazolone) | self-aminoacylation (biotinyl-Ile-oxazolone) | self-aminoacylation (biotinyl-Val-oxazolone) | self-aminoacylation (biotinyl-Phe-oxazolone)
AUUCUCCUACGUCAUCGGGUG [Fam2.2 aminoacylation ribozyme variant] | 9.67 | 6.97 | 6.69 | 4.89 | 5.36 | 57.3
AUUCUCCUAGAUCAUCGGGUG [Fam2.2 aminoacylation ribozyme variant] | 5.3 | 4.32 | 4.66 | 3.28 | 2.68 | 34.7
AUUCUCCUAGGUCAUCUGGUG [Fam2.2 aminoacylation ribozyme variant] | 5.43 | 4.5 | 4.16 | 3.03 | 2.91 | 30
AUUCUUCAAACAAUCGGUCUG [Fam1A.1 aminoacylation ribozyme variant] | 0.682 | 0.63 | 1.27 | 0.672 | 0.663 | 1.66
AUUGACCCAGGUCAUCGGGUG [Fam2.2 aminoacylation ribozyme variant] | 6.54 | 4.74 | 5.64 | 3.6 | 3.31 | 34.9
AUUGACCUAAGUCAUCGGGUG [Fam2.2 aminoacylation ribozyme variant] | 12.1 | 7.6 | 9.4 | 5.64 | 5.26 | 56.8
AUUGACCUAGGACAUCGGGUG [Fam2.2 aminoacylation ribozyme variant] | 4.56 | 4.19 | 4.97 | 3.72 | 3.53 | 19.3
AUUGACCUAGGUAAUCGGGUG [Fam2.2 aminoacylation ribozyme variant] | 3.86 | 2.92 | 3.73 | 3.19 | 3 | 15
AUUGACCUAGGUCAUAGGGUG [Fam2.2 aminoacylation ribozyme variant] | 1.61 | 1.27 | 1.81 | 1.58 | 1.46 | 1.72
AUUGACCUAGGUCAUCCGGUG [Fam2.2 aminoacylation ribozyme variant] | 4.69 | 4.88 | 5.12 | 3.31 | 3.31 | 28.3
AUUGACCUAGGUCAUCGGGUA [Fam2.2 aminoacylation ribozyme variant] | 59.5 | 47.1 | 31.5 | 20.4 | 16.7 | 355
AUUGACCUAGGUCAUCGUGUG [Fam2.2 aminoacylation ribozyme variant] | 1.36 | 1.04 | 1.35 | 1.36 | 1.18 | 4.26
AUUGACCUAUGUCAUCGGGUG [Fam2.2 aminoacylation ribozyme variant] | 7.74 | 5.68 | 5.17 | 3.81 | 3.64 | 28.4
AUUGAUCUAGGUCAUCGGGUG [Fam2.2 aminoacylation ribozyme variant] | 7.89 | 6.53 | 7.06 | 4.45 | 3.8 | 35.2
AUUGCACUGGUCAUCGAGUGA [Fam2.1 aminoacylation ribozyme variant] | 6.88 | 6.01 | 6.67 | 3.68 | 3.93 | 32.7
AUUGCCCCGGUCAUCGAGUGA [Fam2.1 aminoacylation ribozyme variant] | 6.75 | 5.22 | 6.57 | 2.79 | 3.18 | 37.5
AUUGCCCUGGGCAUCGAGUGA [Fam2.1 aminoacylation ribozyme variant] | 8.04 | 6.92 | 7.29 | 2.96 | 3.27 | 44.5
AUUGCCCUGGUAAUCGAGUGA [Fam2.1 aminoacylation ribozyme variant] | 7.99 | 8.63 | 9.18 | 3.71 | 3.92 | 56
AUUGCCCUGGUCAUCGACUGA [Fam2.1 aminoacylation ribozyme variant] | 0.735 | 0.941 | 1.35 | 0.899 | 0.951 | 1.08
AUUGCCCUGGUCAUCGAGAGA [Fam2.1 aminoacylation ribozyme variant] | 1.5 | 1.39 | 0.807 | 1.2 | 1.2 | 1.73
AUUGCCCUGGUCAUCGAGUAA [Fam2.1 aminoacylation ribozyme variant] | 8.75 | 8.54 | 8.07 | 3.56 | 4.02 | 28.4
AUUGCCGUGGUCAUCGAGUGA [Fam2.1 aminoacylation ribozyme variant] | 6.18 | 4.92 | 5.71 | 2.89 | 3.45 | 33.7
AUUUAACUAGGUCAUCGGGUG [Fam2.2 aminoacylation ribozyme variant] | 5.03 | 4.3 | 3.75 | 2.6 | 2.72 | 31.4
AUUUACCUACGUCAUCGGGUG [Fam2.2 aminoacylation ribozyme variant] | 6.25 | 4.54 | 4.65 | 2.56 | 3.17 | 32.2
AUUUACCUAGGUCAUCGGGUG [Fam2.2 aminoacylation ribozyme variant] | 45 | 33.2 | 26.1 | 18.3 | 15.4 | 235
AUUUACCUAGGUCAUCUGGUG [Fam2.2 aminoacylation ribozyme variant] | 3.75 | 2.73 | 3 | 2.15 | 1.95 | 16.8
